Measurements as given in patent publication US20160091500.

T1: intact chondroadherin (CHAD) polypeptide, human
T1 sequence: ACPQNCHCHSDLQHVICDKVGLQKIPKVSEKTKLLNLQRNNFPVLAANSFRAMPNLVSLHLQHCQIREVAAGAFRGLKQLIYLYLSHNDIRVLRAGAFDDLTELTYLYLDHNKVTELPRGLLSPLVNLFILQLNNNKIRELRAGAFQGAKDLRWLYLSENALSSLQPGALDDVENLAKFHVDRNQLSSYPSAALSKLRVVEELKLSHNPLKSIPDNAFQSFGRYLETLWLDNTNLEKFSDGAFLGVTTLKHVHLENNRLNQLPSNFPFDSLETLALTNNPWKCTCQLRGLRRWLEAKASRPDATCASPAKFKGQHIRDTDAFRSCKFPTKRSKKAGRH

B1: MMP-7 (enzyme, UniProt P09237 95-267, looked up, species assumed)
Matrilysin: YSLFPNSPKWTSKVVTYRIVSYTRDLPHITVDRLVSKALNMWGKEIPLHFRKVVWGTADIMIGFARGAHGDSYPFDGPGNTLAHAFAPGTGLGGDAHFDEDERWTDGSSLGINFLYAATHELGHSLGMGHSSDPNAVMYPTYGNGDPQNFKLSQDDIKGIQKLYGKRSNSRKK
B2: Recombinant cathepsin K (enzyme, UniProt P43235 115-329, looked up, species assumed)
Cathepsin K: APDSVDYRKKGYVTPVKNQGQCGSCWAFSSVGALEGQLKKKTGKLLNLSPQNLVDCVSENDGCGGGYMTNAFQYVQKNRGIDSEDAYPYVGQEESCMYNPTGKAAKCRGYREIPEGNEKALKRAVARVGPVSVAIDASLTSFQFYSKGVYYDESCNSDNLNHAVLAVGYGIQKGNKHWIIKNSWGENWGNKGYILMARNKNNACGIANLASFPKM
B3: ADAMTS4 (enzyme, UniProt O75173 213-837, looked up, species assumed)
A disintegrin and metalloproteinase with thrombospondin motifs 4: FASLSRFVETLVVADDKMAAFHGAGLKRYLLTVMAAAAKAFKHPSIRNPVSLVVTRLVILGSGEEGPQVGPSAAQTLRSFCAWQRGLNTPEDSDPDHFDTAILFTRQDLCGVSTCDTLGMADVGTVCDPARSCAIVEDDGLQSAFTAAHELGHVFNMLHDNSKPCISLNGPLSTSRHVMAPVMAHVDPEEPWSPCSARFITDFLDNGYGHCLLDKPEAPLHLPVTFPGKDYDADRQCQLTFGPDSRHCPQLPPPCAALWCSGHLNGHAMCQTKHSPWADGTPCGPAQACMGGRCLHMDQLQDFNIPQAGGWGPWGPWGDCSRTCGGGVQFSSRDCTRPVPRNGGKYCEGRRTRFRSCNTEDCPTGSALTFREEQCAAYNHRTDLFKSFPGPMDWVPRYTGVAPQDQCKLTCQAQALGYYYVLEPRVVDGTPCSPDSSSVCVQGRCIHAGCDRIIGSKKKFDKCMVCGGDGSGCSKQSGSFRKFRYGYNNVVTIPAGATHILVRQQGNPGHRSIYLALKLPDGSYALNGEYTLMPSPTDVVLPGAVSLRYSGATAASETLSGHGPLAQPLTLQVLVAGNPQDTRLRYSFFVPRPTPSTPRPTPQDWLHRRAQILEILRRRPWAGRK

Test system: T1, intact chondroadherin (CHAD) polypeptide, human

Molecule | CHAD fragmentation after protease digestion of normal disc tissue (SDS-PAGE, immunoblot)
MMP-12 | Digestion with MMPs 3, 7, 12 and 13, showed no evidence of CHAD fragments retained in the tissue
MMP-3 | Digestion with MMPs 3, 7, 12 and 13, showed no evidence of CHAD fragments retained in the tissue
ADAMTS5 | digestions performed with ADAMTS4 and ADAMTS5 also did not generate CHAD fragments
Recombinant cathepsin B | Digestions performed with cathepsins B and L showed extensive degradation of CHAD
MMP-13 | Digestion with MMPs 3, 7, 12 and 13, showed no evidence of CHAD fragments retained in the tissue
Recombinant cathepsin L | Digestions performed with cathepsins B and L showed extensive degradation of CHAD
B1 | Digestion with MMPs 3, 7, 12 and 13, showed no evidence of CHAD fragments retained in the tissue
B2 | cathepsin K generated a CHAD fragment large enough to be retained in the gel and similar in size to that generated in situ
B3 | digestions performed with ADAMTS4 and ADAMTS5 also did not generate CHAD fragments
